Test [1] has as its target T1, human TIGIT (antigen of the ELISA and of the m10D8 Biacore assay; construct not stated) (human, UniProt Q495A1 22-141).
T1 sequence: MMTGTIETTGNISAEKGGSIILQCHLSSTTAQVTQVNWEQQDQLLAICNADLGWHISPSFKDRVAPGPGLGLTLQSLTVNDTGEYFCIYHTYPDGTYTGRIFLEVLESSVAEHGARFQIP
In words: Biacore SPR; antigen not given. A general note: SPR reads the build-up and loss of mass on a sensor chip optically.

In another test the target is T2, mouse TIGIT (mouse, UniProt P86176 29-148, limits assumed).
T2 sequence: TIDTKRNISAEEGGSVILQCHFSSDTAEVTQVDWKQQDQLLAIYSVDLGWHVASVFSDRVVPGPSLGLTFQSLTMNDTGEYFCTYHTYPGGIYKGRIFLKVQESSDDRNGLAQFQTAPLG
The experiment in a line: ELISA on mouse TIGIT, OD450. Background: ELISA stands for enzyme-linked immunosorbent assay.

The target of test [2] is T3, TIGIT-Fc fusion protein (human TIGIT extracellular region fused to human IgG1 constant region) (human). In words: competition ELISA: TIGIT-Fc coated at 2 µg/mL, antibody titrated in 2 µg/mL PVR-Fc-bio (blocked ligand), OD450.
Test [3] deals with T1, human TIGIT (antigen of the ELISA and …). The experiment in a line: ELISA, binding to TIGIT.
Test [4] deals with T4, TIGIT-his tag antigen (UniProt Q495A1 22-141, limits assumed).
T4 construct: also called univalent TIGIT-his; not shown: his tag
T4 sequence (looked up): T1 sequence
The experiment in a line: SPR-Biacore, TIGIT-his tag antigen.

Test [5] addresses T4, TIGIT-his tag antigen. The experiment in a line: SPR-Biacore, TIGIT-his tag antigen (second batch).
Test [6] concerns the target T1, human TIGIT (antigen of the ELISA and …). The experiment in a line: ELISA, binding to TIGIT (FIG. 12).
The target in test [7] is T5, full-length human TIGIT on the cell surface (Jurkat-hTIGIT 2E6, CTI-Jurkat, primary human CD3+ cells) (human, UniProt Q495A1 22-244).
T5 construct: whole, on cells; also called TIGIT on Jurkat cell membrane; Jurkat cells overexpressing human TIGIT
T5 sequence (looked up): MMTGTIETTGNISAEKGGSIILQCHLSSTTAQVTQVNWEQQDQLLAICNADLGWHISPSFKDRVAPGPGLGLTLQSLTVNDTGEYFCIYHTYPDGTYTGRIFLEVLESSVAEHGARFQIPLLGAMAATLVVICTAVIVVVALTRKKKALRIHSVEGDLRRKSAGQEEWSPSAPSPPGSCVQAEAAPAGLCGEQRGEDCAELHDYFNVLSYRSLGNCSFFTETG
The experiment in a line: flow cytometry on Jurkat-hTIGIT cells: antibody titrated against biotinylated PVR-Fc (blocked ligand), detected with streptavidin PE, mean FL2-A. How it is done:
(§1) The antibody was serially two-fold diluted from 15 nM to the 10th concentration (including 0 nM). The 10 concentration gradients of antibody were separately transferred into 10 centrifuge tubes each containing 1×10⁶ Jurkat-hTIGIT cells. The cells were then resuspended, and the mixture was incubated at 4° C. for 1 hour. The cells were centrifuged. The supernatant was discarded and the cells were washed twice with PBS. The cells were resuspended in 100 μL of 1:2000 diluted streptavidin PE (Thermo, Cat. No.: 12-4317-87) and incubated at 4° C. for 40 minutes. The cells were centrifuged, and the supernatant was discarded. The cells were washed twice with PBS, resuspended in 200 μL of PBS, and were detected for fluorescent signal using a flow analyzer (mean FL2-A). Finally, the collected fluorescent signals were plotted by 4-parameter fitting for analysis, and the IC₅₀ was calculated.

Test [8] has as its target T4, TIGIT-his tag antigen. The experiment in a line: SPR-Biacore; series 3.125 to 50 nM printed on the panel.
Test [9] deals with T5, full-length human TIGIT on the cell …. The experiment in a line: binding to Jurkat-hTIGIT 2E6 cells, flow cytometry (FIG. 23). On the technique in general: In flow cytometry, cells or beads pass a laser one at a time.
In test [10] the target is T3, TIGIT-Fc fusion protein (human TIGIT …). In words: competition ELISA, blocks PVR binding to TIGIT (method of Example 3).
Test [11] addresses T5, full-length human TIGIT on the cell …. The experiment in a line: cell-based or functional assay.
The target is the same in test [12]. In words: flow cytometry competition with 80 nM biotinylated PVR-Fc on Jurkat-hTIGIT cells. The protocol: as §1
Test [13] deals with T1, human TIGIT (antigen of the ELISA and …). In words: ELISA, binding to TIGIT (FIG. 11).

Substitutions are numbered along the chain they refer to.

B1: recombinant mouse anti-human TIGIT antibody m10D8 (antibody, mouse IgG2a, V domains shown)
VH: EVKLQESGGGLVQPGGSLKLSCAASGFTFSSYGMSWVRQNPDKRLELVATINSNGGSTYYPDSVKGRFTISRDNAKNTLYLQMSSLKSEDTAMYYCARLGTGTLGFAYWGQGTLVTVSS
VL: DIVMTQAHKFMSTSGGDRVSITCKASQDVKTAVSWYQQKPGQSPKLLIYWASTRHTGVPDRFTGSGSGTDYTLTISSVQAEDLALYYCQQHYSTPWTFGGGTKLEIKR
As to B1, in test [1], the Kd (in general, the free concentration of one partner at which half of the binding sites on the other are occupied at equilibrium, for simple one-to-one binding) turned out to be 0.197 nM; the koff (commonly a measure of how fast the partners let go of each other) was found to be 0.0002 s⁻¹; the on-rate (kon) – broadly, the rate constant with which the complex forms – was determined as 1.02e+06 M⁻¹ s⁻¹. For the same molecule, the binding result in the test with mouse TIGIT is “no binding (tested: about 2 µg/mL)”. In addition, the 50% inhibitory concentration (IC50) (usually the concentration needed to halve the response being measured) in test [2] was 0.273 µg/mL.

B2: 10A7 antibody (hamster anti-mouse TIGIT antibody, positive control) (antibody, V domains shown)
VH: EVQLVESGGGLTQPGKSLKLSCEASGFTFSSFTMHWVRQSPGKGLEWVAFIRSGSGIVFYADAVRGRFTISRDNAKNLLFLQMNDLKSEDTAMYYCARRPLGHNTFDSWGQGTLVTVSS
VL: DIVMTQSPSSLAVSPGEKVTMTCKSSQSLYYSGVKENLLAWYQQKPGQSPKLLIYYASIRFTGVPDRFTGSGSGTDYTLTITSVQAEDMGQYFCQQGINNPLTFGDGTKLEIKR
notes: also called positive anti-TIGIT antibody (10A7)
Consider B2, for which the EC50 (read off the curve) – broadly, the midpoint of the concentration-response curve – with mouse TIGIT was about 0.02 µg/mL. In addition, in [2], the concentration for half-maximal inhibition (IC50) came out at 0.263 µg/mL.

B3: h10D8V1 (antibody, human IgG1, kappa)
heavy: not shown
light: DIQMTQSPSTLSAFVGDTITITCKASQDVKTAVSWYQQKPGQPPKLLIYWASTRHTGVPDRFSGSGSGTDYTLTISSLQAEDVAVYYCQQHYSTPWTFGQGTKVDIKRTVAAPSVFIFPPSDEQLKSGTASVVCLLNNFYPREAKVQWKVDNALQSGNSQESVTEQDSKDSTYSLSSTLTLSKADYEKHKVYACEVTHQGLSSPVTKSFNRGEC
notes: Humanized m10D8, first round
Consider B3, for which the EC50 (usually the concentration that produces a half-maximal response) in test [3] worked out at 0.0762 µg/mL. In the test with TIGIT-his tag antigen [4], this molecule yielded a Kd of 2.18 nM, an off-rate constant (koff) of 0.000446 s⁻¹ and an on-rate (kon) of 205000 M⁻¹ s⁻¹.

B4: h10D8V2 (antibody, human IgG1, kappa)
heavy: not shown
light: B3 light
notes: Same variable regions as h10D8V1; differs at EU positions 356 and 358 of the constant region
On to B4, for which a half-maximal effect in test [3] (EC50) was put at 0.0924 µg/mL. Besides, in the test with TIGIT-his tag antigen [5], the Kd turned out to be 0.468 nM, the koff came to 0.00048 s⁻¹ and the kon was 1.02e+06 M⁻¹ s⁻¹. In the test with TIGIT-his tag antigen [4], this molecule showed a Kd of 2.55 nM, a koff of 0.000492 s⁻¹ and an association rate constant (kon) of 193000 M⁻¹ s⁻¹. This molecule yielded a 50% effective concentration (EC50) in test [6] of 0.0531 µg/mL.

B5: Tiragolumab (positive control antibody) (antibody, human IgG1, kappa, V domains shown)
VH: EVQLQQSGPGLVKPSQTLSLTCAISGDSVSSNSAAWNWIRQSPSRGLEWLGKTYYRFKWYSDYAVSVKGRITINPDTSKNQFSLQLNSVTPEDTAVFYCTRESTTYDLLAGPFDYWGQGTLVTVSS
VL: not shown
Regarding B5, the Kd with TIGIT-his tag antigen [5] is 0.113 nM; in the test with TIGIT-his tag antigen [8], 0.133 nM. Further, the off-rate constant (koff) in the test with TIGIT-his tag antigen [5] turned out to be 9.24e-05 s⁻¹. Further, the kon in the test with TIGIT-his tag antigen [5] came out at 818000 M⁻¹ s⁻¹. For the same molecule, the IC50 in test [7] was determined as 2.38 nM; in test [10], 0.429 µg/mL. The EC50 in [9] was found to be 1.91 nM; in [6], 0.0536 µg/mL.

B6: h10D8OFKF (antibody, human IgG1, kappa, V domains shown)
VH: QVQLVESGGGVVQPGRSLRLDCKASGFTFSSYGMSWVRQAPGKGLELVATINSNGGSTYYPDSVKGRFTISRDNSKNTLFLQMNSLRAEDTAVYYCARLGTGTLGFAYWGQGTLVTVSS
VL: EIVMTQSPATLSLSPGERATLSCKASQDVKTAVSWYQQKPGQAPRLLIYWASTRATGIPARFSGSGSGTDYTLTISSLEPEDFAVYYCQQHYSTPWTFGQGTKVEIKR
modifications: fucose removed from the glycan (made in engineered CHO host cells)
Take B6: in test [11], the “ADCC activity EC50” value came out at 0.0152 nM and the “ADCC activity, fold of h10D8OF” value is 8.8 times that of h10D8OF.

B7: h10D8V4 (antibody, human IgG1, kappa, V domains shown)
VH: B6 VH with V5Q, V11L, R16G, D21S, K23A, S75A, F80Y
VL: DIVMTQSPSTLSASVGDRVTITCKASQDVKTAVSWYQQKPGQPPKLLIYWASTRHTGVPDRFSGSGSGTDYTLTISSLQAEDVAVYYCQQHYSTPWTFGQGTKVEIKR
Consider B7, for which the 50% inhibitory concentration (IC50) turned out to be 15.8 nM in test [12] and 0.217 µg/mL in test [10]. The molecule further had a concentration giving a half-maximal response (EC50) in [13] of 0.0256 µg/mL.

B8: h10D8OF (antibody, human IgG1, kappa, V domains shown)
VH: B6 VH
VL: B6 VL
notes: Humanized m10D8, second round; LCDR2 is the mutant WASTRAT; also called anti-TIGIT antibody h10D8OF
Take B8: the affinity with TIGIT-his tag antigen [5], expressed as Kd, was 3.63 nM. The molecule also showed a koff in the test with TIGIT-his tag antigen [5] of 0.00183 s⁻¹. Besides, the on-rate (kon) with TIGIT-his tag antigen [5] stood at 502000 M⁻¹ s⁻¹. The IC50 in [7] is 0.656 nM; in test [12], 11.3 nM; in [10] it was 0.159 µg/mL. In addition, the figures for the concentration for a half-maximal effect (EC50) in test [9], in test [6] and in test [13] were 0.696 nM, 0.0427 µg/mL and 0.0233 µg/mL, respectively. Moreover, in test [11], the “ADCC activity EC50” value was determined as 0.125 nM.

B9: h10D8V3 (antibody, human IgG1, kappa, V domains shown)
VH: B6 VH with Q1E, V11L, R16G, D21S, K23A, F80Y
VL: B7 VL with V3Q, T10S, Q42K, P43A, D60S, A80P, V83F, V85T, Q100G
For B9, in test [3], the EC50 came to 0.0526 µg/mL. In the test with TIGIT-his tag antigen [4], this molecule had a Kd of 14.1 nM, a koff of 0.00114 s⁻¹ and a kon of 81200 M⁻¹ s⁻¹.

B10: h10D8V5 (antibody, human IgG1, kappa, V domains shown)
VH: B1 VH with E1Q, K3Q, K19R, S84N, K87R, S88A
VL: B7 VL with S9K, P43S, V85L, Q100G
On to B10, for which the 50% inhibitory concentration (IC50) in [12] was determined as 10.4 nM; in test [10], 0.284 µg/mL. The molecule further returned an EC50 in test [13] of 0.0241 µg/mL.
